One block for each binder: values may come before it.
Experiments:
[1] = target: T1, Protein Tyrosine Phosphatase Receptor Type Z1 (PTPRZ1) peptide on HLA-A*02:01 (human); test: multimer staining
T1 peptide: MIWEHNVEV

[2] = target: T2, Neuroligin-4, X-linked (NLGN4X) peptide on HLA-A*02:01 (human); test: multimer staining
T2 peptide: NLDTLMTYV

- binding result [1]: recognises
B1: PTPRZ1(1814-1822)-specific TCR (TCR, V domains shown)
Valpha: AQSVTQLDSQVPVFEEAPVELRCNYSSSVSVYLFWYVQYPNQGLQLLLKYLSGSTLVKGINGFEAEFNKSQTSFHLRKPSVHISDTAEYFCAVSDRGAGNMLTFGGGTRLMVKP
Vbeta: GAGVSQSPSNKVTEKGKDVELRCDPISGHTALYWYRQSLGQGLEFLIYFQGNSAPDKSGLPSDRFSAERTGGSVSTLTIQRTQQEDSAVYLCASSLGLAGGLAGELFFGEGSRLTVL

- binding result [2]: recognises
B2: NLGN4X(131-139)-specific TCR (TCR, V domains shown)
Valpha: RKEVEQDPGPFNVPEGATVAFNCTYSNSASQSFFWYRQDCRKEPKLLMSVYSSGNEDGRFTAQLNRASQYISLLIRDSKLSDSATYLCVVTDSGNTGKLIFGQGTTLQVKP
Vbeta: GAVVSQHPSWVICKSGTSVKIECRSLDFQATTMFWYRQFPKQSLMLMATSNEGSKATYEQGVEKDKFLINHASLTLSTLTVTSAHPEDSSFYICSARVDYNEQFFGPGTRLTVL
